Measurements as given in patent publication US20100035363A1.

Experiments:
[1] = biological target: biotin-labeled RSV-IQN57 (Respiratory Syncytial Virus (F1 part)); test: time-resolved FRET competition, IQN57-APC/C45-Eu assay; competitor C45-Eu
[2] = biological target: biotin-labeled RSV-IQN51 (Respiratory Syncytial Virus (F1 part)); test: time-resolved FRET competition, IQN51-APC/C39-Eu assay; competitor C39-Eu

Substance | IC50 [1] [µM] | IC50 [2] [µM]
HIV-C34 (peptide) | > 10 | > 10
HIV-T20 (peptide) | > 10 | > 10
